Source: publication PMC12866179, “Oxidized MIF is an Alzheimer’s disease drug target relaying external risk factors to tau pathology” (Cell Reports Medicine, 2025)

Molecular target: T1, recombinant human wild-type macrophage migration inhibitory factor (MIF) (human), P14174
T1 chain: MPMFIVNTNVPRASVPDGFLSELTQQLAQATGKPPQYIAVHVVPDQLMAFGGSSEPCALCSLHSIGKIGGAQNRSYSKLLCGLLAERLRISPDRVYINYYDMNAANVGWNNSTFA
Assay: SEC-MALS; 100 uM MIF (WT or C80W) in 20 mM phosphate buffer, with or without 100 uM PAV-174; TSKgel G2000SWXL, 0.5 mL/min, 25 C; UV 280 nm and miniDawn Treos light scattering
Details: remark: other sources report otherwise

B1: recombinant human wild-type macrophage migration inhibitory factor (MIF), P14174 1-115 (natural protein)
chain: MPMFIVNTNVPRASVPDGFLSELTQQLAQATGKPPQYIAVHVVPDQLMAFGGSSEPCALCSLHSIGKIGGAQNRSYSKLLCGLLAERLRISPDRVYINYYDMNAANVGWNNSTFA
B1 was tested, and the stoichiometry N was 3.
